The DeepSol protein solubility set

Test: soluble on expression in E. coli; label from the status in PepcDB or PDB records

Sequence | soluble on expression in E. coli
MGSDKIHHHHHHMTNGRILFIREREFARSNVINYGMALVATAASKAFSVRAIDNNGLYRLYSHDDIAAEVEHFRPDVIGLSIITANALTSYETAEMLKRRFPDIPILAGGLHVSHQVGEALESGIDYVVRGEADLTIVPLLSALVEARDRGMPPDFTGIAGVSHGRGEAFVDGGNATLPLNLDEHSDVDFGLYDLGDFYRHPRDSLAIGSVLTQRGCPFRCTFCSDQYLSQSVRYRSIARSVDEIEDKLDRFGVNIFNIRDADFTMHNERVVEFCNELIRRGLHNRINLTIETDSFRVIPRDTLALMKQSGFSSIGFGIERLTPEIQRRIKKNISRSRIMENLKNCRELGFVISVHCLIGFSFDTMEDIAREQALFDELADQYVDIVSASIVVACPGTSEFSAVPPERSSWYLNPSAFPSRRPLYQVVRRFQYDPRHVPIYDFPPGMMERMMDFRDHFRKKTIGKRGRPLLWAYLLMLQIARLSEALYAASPRLERATFGWTLDWLETLNAIFTKLWAKRNDDRVNANHSCGQTPQP | not soluble
MGSDKIHHHHHHMTNKYEEFKTYLKKIGSGEFTGKSLTREETKSALMLMLKEEASAAQIGGFMIAHRIRRPIPEELAGMIDAYIELGPKIQSPSNQRQPIFFGMPFDGRKKTAPIYPLTTLLLLTQKQPVILHGGSRMPVKYGVTHNELFQALGINLTGLSIEQLQSFFNHNYLALIHQPDHFPLAENLIPYRDQIGKRPPLASMELIWTCHQGSHLHISGYVHSPTEERHWKTLELMGEQNVITIKGLEGGIDLSISRSSTIGQYKNQHGTRTVFHPKDYECSGKDIEWSDITEWKKFALQALNGEGPLTKALEWNAGIYFFYAGISSDIKEGINKAKEVINSGFALKQLEKLIHWSDENIDS | not soluble
MGSDKIHHHHHHMTNLLSVRDLSIALCQGQEQRYILEKVTFEIKEGETVALVGESGSGKSVTALSILQLLPFLKTLYQSGEILFNDKDLLKQKEEDLRKVRGKDIAMIFQEPMTALNPLHNVERQIGEVLKMHSDMTNQSLRAHIIDLLTQVGIHEPQKRLGSFPHELSGGQRQRVMIAMALANNPRLLIADEPTTALDVTVQARILELLVHLKKQNNMSMLFITHNLAIVRCIADRVYVMRKGKIVESAPIDQLFANAQKPYTKQLLAAEPKGYPLQADKSAPILMQGKKVRVWFPIKKGLLRRTKGYIKAVQDMDVTIRVGQTLGVVGESGSGKTTLGLSLIRMLSSKGQIIFDDIDISNFTFKKMRSLRRHIQIVFQDPFGSLSPRMSVSEIIAEGLSIHEPKLSYSERNDRVIEALHEVNLDPSTRYRYPHEFSGGQRQRIALARAIILKPRFIMLDEPTSSLDVSVQAQIISLLLHLQKKYHLGYLFISHDLKVIKALAHEVIVMRNGEMVEYGSADRIFSCPQNTYTQSLMAAAFALESDRL | not soluble
MGSDKIHHHHHHMTNVGRPIETHAITVGQGSDARSIAALVRAPAQDERPTCIWLGGYRSDMTGTKALEMDDLAASLGVGAIRFDYSGHGASGGAFRDGTISRWLEEALAVLDHFKPEKAILVGSSMGGWIALRLIQELKARHDNPTQVSGMVLIAPAPDFTSDLIEPLLGDRERAELAENGYFEEVSEYSPEPNIFTRALMEDGRANRVMAGMIDTGCPVHILQGMADPDVPYQHALKLVEHLPADDVVLTLVRDGDHRLSRPQDIDRMRNAIRAMIEPRP | not soluble
MGSDKIHHHHHHMTPEQFEVKANPALWERLGMNVERFSGMPKMLTEAFRGIYLSQKNRPARMEYFDGMIAELHSGRVEELVTAKDAGRPVVGTFCVYVPEEVIMAVGGICVGLCGGSQGSIPDAEKVLPRNICPMVKSAFGFKLGKICPYFQAVDLVYGETTCDAKKKTWELLDREVPTHVMEIPQMKRARDKALWLEEVKDFTSKMEEVSGRKATAEGIGAAIRVMNAKRLALQRLNDLRHHTPSPISGKDMLLIQQIAFYDDPARFTANVNELCDELDERIAAGVAVAPAATPRVMVSGTPMALPNWKLHHLIESAGAVVVNEESCIGTRYYKDLTDESTATVDEQLSLLTDRYMKIDCSCFTPNDDRIEQVLVEYRASGAQGLIDYCLQFCHTYNIEAVKLREMCEREGIPFLAIETDYSPEDVGQLQTRIEAFIEQIRG | not soluble
MGSDKIHHHHHHMTPRSGKTTAGHFRYARYLIESEDENHLVTAYNQEQAYRLFIDGDGTGLMHIFDGNCEIKHDERGDHLLITTPKGNKRVYYKGGGKVNSVGAITGMSLGSVVFCEINLLHMDFIQECFRRTWAAKLRYHLADLNPPAPQHPVIKDVFDVQNTRWTHWTMDDNPILTAERKQNIINSLKKNPYLYKRDVLGQRVMPQGVIYGLFDTEKNVLDALIGEPVEMYFCADGGQSDATSMSCNIVTRVRDNGRISFRLNRVAHYYHSGADTGQVKAMSTYALELKVFIDWCVKKYQMRYTEVFVDPACKSLREELHKLGVFTLGAPNNSKDVSSKAKGIEVGIERGQNIISDGAFYLVNHSEEEYDHYHFLKEIGLYSRDDNGKPIDKDNHAMDEFRYSVNVFVHRYYN | not soluble
MGSDKIHHHHHHMTPSDTNAPVDRLKIGFVLARSFTLSAFALFVDTLRLASDEFDRSGRVLADWDVLGSTRHLITSSCGVQVAPTSDLVEDPSQFQFIVVVGGLLNNEQPIDRETAAFLKKAAAKNVKLIGVCTGSFILAELGLMKSHRTCVSWLHYNAFRERFPDLQVRSDRIFNLDRTRGSCVGGSSAADMAALIVRRHISKDAERNALEVLHIEKARSALAIQTRKPLSIECNDPRIRATLIMMEQHIEGNLPIQDLAAAVGLSRRQLERLFISETKSSPAMIYRRVRLERAKHLLVQSKAPLVEIALEVGFGNASHFAKVFAQTFGQSPTGLRTAIRATL | not soluble
MGSDKIHHHHHHMTPTVMVVDESRITFLAVKNALEKDGFNVIWAKNEQEAFTFLRREKIDLVFVDVFEGEESLNLIRRIREEFPDTKVAVLSAYVDKDLIINSVKAGAVDYILKPFRLDYLLERVKKIISSTPRVTVSLRKNIEDLEITLKFEDIVRKEIKRSNRTGSRFCVMYVKFEDIMRDYETIKKFFRETDYVLPISASEYLFVLTLTGKHGIEAVTRRMKEKLSERFSYTYVCYPDDGKTYEEIILTLKDRMAKPRGNES | not soluble
MGSDKIHHHHHHMTQLFLHSDTPNEKELISIYEKAVSEAVELYIFSAYLTHWDVKNKLNSKLQEFKFIFGQDFGLSKKEAIRKVLKWLPSHLKFTLMVAQGIQGFHPKAVFWKNDKNEYYALIGSSNLTHAAFNSNYEANILTKISEQDFIKVKSWADEIAMKSIPVSEDWLEEYQEAEINYKKSTVRQSVMDKLFMEMPNYNQELIAARRKQMRNHQTVCNQLKNLIKQCAAGKIDNNDFYGEFNKLWSWKSENKGEGVGNRFQDKTWKRTGKSSDFRKLCIAIQSVFDAPLTERDNVVAKQIDWLKECGVSTRGSVFSEMLCQEYPDRYPVLNAPIKKFLEENKFKSAKGASEGSKYIDLSMKLRALLAMQSEIKDLAELDVLVQAEYRNRTDIDWE | not soluble
MGSDKIHHHHHHMTQQTIYHIGTPGTPWGATEKAQWLAEQTKKRSYFDDVVSKIETFKSDFDVDQYGELAYDSGTYPLFVVRTKNWDDSKPTVLVTGGVHGYETSGVHGALRFIETKAKDYQPHFNVVVAPCLSPWGYETINRWNPAAIDPNRSFVADSPAGECAHIMNYVAGLGVDILAHIDLHETTDTDNSEFRPAKAAMDGKVNTNWNIPDGFYLVGNSEKPYPEFQKAVLDSVEEVTHIADADDENKLIGEDIAQRGVILLPTAKMGLCISFSKAEYATTTEVYPDSPKATPEQCIQAQVAAVTGGLDFLK | not soluble
MGSDKIHHHHHHMTRVLKVDPLFPDEKVLKEAAELLRNGEVIIFPTETVYGIGADAYNEEACKKIFKLKERPADNPLIVHIHSFKQLEEIAEGYEPHLDFLKKFWPGPLTVIFRKKSEKIPPVVTADLPTVAVRMPAHPVALKLIELFGHPIAAPSANISGRPSATNVKHVIEDFMGKVKLIIDAGDTPFGLESTIVDLTKEKPVLLRPGPVEVERLKELFPELVVPDFVRKGNFKGRPLAPGMKYRHYAPLKPLILVEDLTKMEEVLKKYPDHVVICVEERKELYDDRIVVGSLKNPYSIAQNIFSALREAEKMGKEYIIVEGFEERGILFAVMNRLRKAATEIVR | not soluble
MGSDKIHHHHHHMTRYKLSAEVSFSKPSEIMGRLYILPYRDNAQKVLHFNIDHPSFCKVSINQDRFRNEHLDFKCNPSDDFSIIISYEVEVNSFSKSENEEEVFLSSSKYVNVDKFKMINVRYFSFDDLIDEVISMVRDSIRYDKNNKSVKSAFGSLIMGSGVCVNYSHVAIGILRALGIPARYVIGLIPFSTKEAHAWIEVKIGDVWFPVDPTNGIKGMQYLKWAIGRDDNDVRSKIWYSKPVSFDFSFDWNFR | not soluble
MGSDKIHHHHHHMTRYQHLAGLLEQRIEQGLYQSGERLPSVRALSTEHGVSISTVQQAYHLLETRQLIMPQPRSGYFVTPRKATPPVPALTRPAQRPVEITQWESVLELVNVRLETNVLKFGSGMPDVSQPTIKPLWKEMSRLCQYQDPRVLQYDSVYGVPALREQIARLTVDCGCQLNQDDIVITTGCQEALFVAVRAVCQPGDIVAVESPAFPGTMQILRGLDIKAIEIPTDSVTGISLEALRLALDQWPVKAVLLVPSCNNPLGFIMPDARKKSLVTLAQHFDIAIIEDDAYGELAYEYPRPRAIKSFDEDGRVLLCSSFSKNLAPGLRVGWIAPGRYLERVIHTKYISTGSTVVQPQLAVAEFIRRGHYQPHLRRMRAQYKANLDIFTCWVREYFPSNICVSRPQGGFLVWIELPEYFDSLKLAREVRKAGIQIAAGSLFSASGKYRNCIRLNYANRFTEEMREGLRIVGSEVAKMMHTLPDQSAP | not soluble
MGSDKIHHHHHHMTSKPSTSDGRAHSISHVPGTHMRGTSASHSPRPFRPCADCTCSPGLLSRQGRRASLFLRQLENSRRSSSMLLNELKGAGGGSSAGNGSVYSCDSLCAVNREVNTTDRLLKLRQEMKKHDLCCYIVPSCDEHQSEYVSLRDQRRAFISGFSGSAGVACITRDLLNFNDDHPDGKSILSTDGRYFNQARQELDYNWTLLRQNEDPITWQEWCVREALEMAKGLGNKEGMVLKIGIDPKLITFNDYVSFRKMIDTKYDAKGKVELVPVEENLVDSIWPDFETLPERPCNDLLLLKYEFHGEEFKDKKEKLLKKLNDKASSATTGRNTFIVVALDEICWLLNLRGSDIDYNPVFFSYVAINEDETILFTNNPFNDDISEYFKINGIEVRPYEQIWEHLTKITSQASSAEHEFLIPDSASWQMVRCLNTSTNANGAIAKKMTAQNFAIIHSPIDVLKSIKNDIEIKNAHKAQVKDAVCLVQYFAWLEQQLVGREALIDEYRAAEKLTEIRKTQRNFMGNSFETISSTGSNAAIIHYSPPVENSSMIDPTKIYLCDSGSQFLEGTTDITRTIHLTKPTKEEMDNYTLVLKGGLALERLIFPENTPGFNIDAIARQFLWSRGLDYKHGTGHGIGSFLNVHEGPMGVGFRPHLMNFPLRAGNIISNEPGYYKDGEYGIRIESDMLIKKATEKGNFLKFENMTVVPYCRKLINTKLLNEEEKTQINEYHARVWRTIVHFLQPQSISYKWLKRETSPL | not soluble
MGSDKIHHHHHHMTSLFYSPLIKYRVDVLPSSELKKENINTKALVVIGDGINREKISEDLELNPLLVRIVGKDSSKEEVEYNKVVLENAWLADLAPVEEIKSIDRRSLLRGEVKKAKKVDKPIYLSEYCNGLYKACNVCEFSCPYNAIKVDKKTGVNIDYTKCTSCGLCVASCPVSAIQFPSLSQNSIFELAKVKGEKRITCYRNTKNRGVKIPCLAMLSEVDIVLLRGSGNLTFECVGCELQDNLKDFIEVIKEYNERIGGISFYSPSEKIEAKETKELNTTPQSFYNRAEARRNISDELPYILFDVSIDNNRCTLCESCVNWCPTSAIMLRRSSGVEEIDFDPMKCIGCNICVNVCPESCKLEEGKTSEIPPNIASLTKVIKVEKSKSVNKEVRKLVGDELVRCRVCGAPIGSRKSLNHVKKIMIEKGASCEDEWLERCPKHRAEYAFQKQFSFNARFKPRGDLR | not soluble
